Patent US20180155431A1 (Hoffmann-La Roche, published 2018)

Molecular target: T1, human angiopoietin 2 (human, UniProt O15123 19-496, limits assumed)
T1 construct: The protein was bought (R&D Systems Cat. No. 623-AN) or produced in house; also called ANG-2; ANGPT2
T1 sequence: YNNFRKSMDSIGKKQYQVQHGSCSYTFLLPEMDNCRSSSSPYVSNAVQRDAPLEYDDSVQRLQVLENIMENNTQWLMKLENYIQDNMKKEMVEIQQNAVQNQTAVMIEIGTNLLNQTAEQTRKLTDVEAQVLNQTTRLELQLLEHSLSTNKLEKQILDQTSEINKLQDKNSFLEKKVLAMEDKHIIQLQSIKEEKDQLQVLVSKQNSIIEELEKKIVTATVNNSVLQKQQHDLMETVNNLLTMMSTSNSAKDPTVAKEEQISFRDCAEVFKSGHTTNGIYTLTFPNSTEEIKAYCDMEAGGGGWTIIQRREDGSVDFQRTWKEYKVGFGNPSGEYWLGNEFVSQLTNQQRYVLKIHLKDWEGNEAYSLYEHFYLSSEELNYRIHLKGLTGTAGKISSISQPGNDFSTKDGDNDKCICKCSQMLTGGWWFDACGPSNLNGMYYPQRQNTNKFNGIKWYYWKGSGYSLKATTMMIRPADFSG
Experiment: ANG-2/Tie2 interaction ELISA: antibody dilutions pre-incubated with 0.2 ug/ml human ANG-2, then added to plate-coated human Tie2; bound ANG-2 detected
Method: After washing a mixture of 0.5 μg/ml biotinylated anti-Angiopoietin-1/2 clone (R&D Systems #BAF923, BAM0981 R&D Systems, UK) and 1:3000 diluted streptavidin HRP (Roche Diagnostics GmbH, DE, Cat. No. 11089153001) was added for 1 h. Thereafter the plates were washed 6 times with PBST. Plates were developed with freshly prepared ABTS reagent (Roche Diagnostics GmbH, DE, buffer #204 530 001, tablets #11 112 422 001) for 30 minutes at RT. Absorbance was measured at 405 nm.

B1: <ANG-2> LC06 (antibody, V domains shown)
VH: not shown
VL: QPGLTQPPSVSVAPGQTARITCGGNNIGSKSVHWYQQKPGQAPVLVVYDDSDRPSGIPERFSGSNSGNTATLTISRVEAGDEADYYCQVWDSSSDHYVFGTGTKVTVLG
- IC50: 0.1 nM
